Experimental data from US20170247418A1.
Like-named read-outs stand apart in the source and are kept apart here.

Legend:
[1] = molecular target: biotinylated eboIZN39IQ; experiment: SPR (ProteOn XPR36), eboC24 flowed over biotin-eboIZN39IQ, pH 5.8
[2] = molecular target: biotinylated eboIZN39IQ

With IEPHDWTKNITDKIDQIIHDFVDK (modifications not checked) [eboC24] the Kd [1] was 300 nM and the Kd [2] was 310 nM.
